# According to patent US20190185537A1 (AstraZeneca / MedImmune, published 2019):
# Numbered stars: 1 amine (or outer) side, 2 acyl side, 3 side chain; on linkers, the order of the positions; unused ones are H or OH. Side chains are listed from the residue outwards. Ends that are not written are not given here. * marks the point of attachment. γGlu = O=C(O)[C@H](CCC(=O)[*:2])N[*:1]; Palmitoyl = CCCCCCCCCCCCCCCC(=O)*; Ahx = NCCCCCC(=O)O
# T1: human glucose-dependent insulinotropic peptide (gastric inhibitory polypeptide) receptor (human) (UniProt P48546)
# T1 sequence (looked up): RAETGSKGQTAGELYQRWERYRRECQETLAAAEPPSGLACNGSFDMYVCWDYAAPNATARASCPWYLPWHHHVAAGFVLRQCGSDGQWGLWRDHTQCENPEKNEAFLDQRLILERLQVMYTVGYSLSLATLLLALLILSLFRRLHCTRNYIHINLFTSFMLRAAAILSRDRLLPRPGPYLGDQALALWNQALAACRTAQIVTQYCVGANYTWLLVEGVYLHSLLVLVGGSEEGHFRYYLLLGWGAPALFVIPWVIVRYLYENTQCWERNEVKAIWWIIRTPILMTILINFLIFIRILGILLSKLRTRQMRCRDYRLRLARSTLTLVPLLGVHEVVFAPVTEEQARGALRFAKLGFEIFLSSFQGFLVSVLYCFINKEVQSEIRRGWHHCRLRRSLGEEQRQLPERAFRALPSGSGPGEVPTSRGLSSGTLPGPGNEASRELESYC
# What was measured:
# Experiment in all cases: cell-based or functional assay
# human glucagon receptor = human glucagon receptor (human, UniProt P47871 26-477)
# human GLP-1 receptor = human GLP-1 receptor (human, UniProt P43220 24-463)
# [1] = biological target: T1, human glucose-dependent insulinotropic peptide (gastric inhibitory polypeptide) receptor (human)
# Chain of human glucagon receptor (P47871 26-477): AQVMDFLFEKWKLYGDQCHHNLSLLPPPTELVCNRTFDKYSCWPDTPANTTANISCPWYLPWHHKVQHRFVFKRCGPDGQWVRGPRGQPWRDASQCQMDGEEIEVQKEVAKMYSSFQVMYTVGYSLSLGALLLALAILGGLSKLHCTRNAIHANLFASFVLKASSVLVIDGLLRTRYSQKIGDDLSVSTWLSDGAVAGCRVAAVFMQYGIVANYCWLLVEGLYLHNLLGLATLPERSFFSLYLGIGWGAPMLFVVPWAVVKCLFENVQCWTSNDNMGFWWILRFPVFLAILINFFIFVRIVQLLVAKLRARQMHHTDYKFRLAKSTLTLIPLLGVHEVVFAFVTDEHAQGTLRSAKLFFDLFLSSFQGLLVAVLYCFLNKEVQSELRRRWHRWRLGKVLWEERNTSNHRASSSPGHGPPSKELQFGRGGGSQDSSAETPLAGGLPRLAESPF
# Chain of human GLP-1 receptor (P43220 24-463): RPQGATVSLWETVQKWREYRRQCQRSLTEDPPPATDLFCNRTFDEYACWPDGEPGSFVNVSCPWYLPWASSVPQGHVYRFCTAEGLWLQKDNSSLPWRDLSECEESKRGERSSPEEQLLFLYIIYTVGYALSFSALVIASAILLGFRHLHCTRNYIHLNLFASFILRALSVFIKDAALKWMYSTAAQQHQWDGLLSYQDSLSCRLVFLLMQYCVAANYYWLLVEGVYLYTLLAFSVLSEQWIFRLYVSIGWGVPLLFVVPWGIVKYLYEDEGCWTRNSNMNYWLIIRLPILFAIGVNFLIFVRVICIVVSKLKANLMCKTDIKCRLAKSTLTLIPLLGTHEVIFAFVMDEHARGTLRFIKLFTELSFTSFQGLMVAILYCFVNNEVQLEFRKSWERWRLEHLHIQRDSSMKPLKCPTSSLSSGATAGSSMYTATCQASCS
cAMP EC50 (assay 1) (human glucagon receptor),cAMP EC50 (assay 1) (human GLP-1 receptor),cAMP EC50 (assay 1) [1],Binder
0.00469 nM,0.0157 nM,32.2 nM,HSQGTFTSDYSEYLDSK([Ahx-Palmitoyl])RARDFVAWLERGG-NH2 (not fully specified) [g794]
0.00355 nM,0.0106 nM,1.72 nM,HSQGTFTSDYSKYLDSRRAQDFVQWLVAGGKNNRNNIAK(Palmitoyl)-NH2 (N-terminus assumed; SMILES CCCCCCCCCCCCCCCC(=O)NCCCC[C@H](NC(=O)[C@H](C)NC(=O)[C@@H](NC(=O)[C@H](CC(N)=O)NC(=O)[C@H](CC(N)=O)NC(=O)[C@H](CCCNC(=N)N)NC(=O)[C@H](CC(N)=O)NC(=O)[C@H](CC(N)=O)NC(=O)[C@H](CCCCN)NC(=O)CNC(=O)CNC(=O)[C@H](C)NC(=O)[C@@H](NC(=O)[C@H](CC(C)C)NC(=O)[C@H](Cc1c[nH]c2ccccc12)NC(=O)[C@H](CCC(N)=O)NC(=O)[C@@H](NC(=O)[C@H](Cc1ccccc1)NC(=O)[C@H](CC(=O)O)NC(=O)[C@H](CCC(N)=O)NC(=O)[C@H](C)NC(=O)[C@H](CCCNC(=N)N)NC(=O)[C@H](CCCNC(=N)N)NC(=O)[C@H](CO)NC(=O)[C@H](CC(=O)O)NC(=O)[C@H](CC(C)C)NC(=O)[C@H](Cc1ccc(O)cc1)NC(=O)[C@H](CCCCN)NC(=O)[C@H](CO)NC(=O)[C@H](Cc1ccc(O)cc1)NC(=O)[C@H](CC(=O)O)NC(=O)[C@H](CO)NC(=O)[C@@H](NC(=O)[C@H](Cc1ccccc1)NC(=O)[C@@H](NC(=O)CNC(=O)[C@H](CCC(N)=O)NC(=O)[C@H](CO)NC(=O)[C@@H](N)Cc1c[nH]cn1)[C@@H](C)O)[C@@H](C)O)C(C)C)C(C)C)[C@@H](C)CC)C(N)=O) [g322]
0.0106 nM,0.0314 nM,3.65 nM,HSQGTFTSDYSKYLDSRRAQDFVQWLVAGGSSGGSS-NH2 [g316]
13.1 nM,0.00791 nM,215 nM,HGEGTFTSDYSEYLDSK([Ahx-Palmitoyl])RARDFVEWLERGG-NH2 (N-terminus assumed; SMILES CCCCCCCCCCCCCCCC(=O)NCCCCCC(=O)NCCCC[C@H](NC(=O)[C@H](CO)NC(=O)[C@H](CC(=O)O)NC(=O)[C@H](CC(C)C)NC(=O)[C@H](Cc1ccc(O)cc1)NC(=O)[C@H](CCC(=O)O)NC(=O)[C@H](CO)NC(=O)[C@H](Cc1ccc(O)cc1)NC(=O)[C@H](CC(=O)O)NC(=O)[C@H](CO)NC(=O)[C@@H](NC(=O)[C@H](Cc1ccccc1)NC(=O)[C@@H](NC(=O)CNC(=O)[C@H](CCC(=O)O)NC(=O)CNC(=O)[C@@H](N)Cc1c[nH]cn1)[C@@H](C)O)[C@@H](C)O)C(=O)N[C@@H](CCCNC(=N)N)C(=O)N[C@@H](C)C(=O)N[C@@H](CCCNC(=N)N)C(=O)N[C@@H](CC(=O)O)C(=O)N[C@@H](Cc1ccccc1)C(=O)N[C@H](C(=O)N[C@@H](CCC(=O)O)C(=O)N[C@@H](Cc1c[nH]c2ccccc12)C(=O)N[C@@H](CC(C)C)C(=O)N[C@@H](CCC(=O)O)C(=O)N[C@@H](CCCNC(=N)N)C(=O)NCC(=O)NCC(N)=O)C(C)C) [g726]
0.00282 nM,0.0247 nM,12.6 nM,HSQGTFTSDYSKYLDSRRAQDFVQWLVAGGGGGGK(Palmitoyl)-NH2 (N-terminus assumed; SMILES CCCCCCCCCCCCCCCC(=O)NCCCC[C@H](NC(=O)CNC(=O)CNC(=O)CNC(=O)CNC(=O)CNC(=O)CNC(=O)[C@H](C)NC(=O)[C@@H](NC(=O)[C@H](CC(C)C)NC(=O)[C@H](Cc1c[nH]c2ccccc12)NC(=O)[C@H](CCC(N)=O)NC(=O)[C@@H](NC(=O)[C@H](Cc1ccccc1)NC(=O)[C@H](CC(=O)O)NC(=O)[C@H](CCC(N)=O)NC(=O)[C@H](C)NC(=O)[C@H](CCCNC(=N)N)NC(=O)[C@H](CCCNC(=N)N)NC(=O)[C@H](CO)NC(=O)[C@H](CC(=O)O)NC(=O)[C@H](CC(C)C)NC(=O)[C@H](Cc1ccc(O)cc1)NC(=O)[C@H](CCCCN)NC(=O)[C@H](CO)NC(=O)[C@H](Cc1ccc(O)cc1)NC(=O)[C@H](CC(=O)O)NC(=O)[C@H](CO)NC(=O)[C@@H](NC(=O)[C@H](Cc1ccccc1)NC(=O)[C@@H](NC(=O)CNC(=O)[C@H](CCC(N)=O)NC(=O)[C@H](CO)NC(=O)[C@@H](N)Cc1c[nH]cn1)[C@@H](C)O)[C@@H](C)O)C(C)C)C(C)C)C(N)=O) [g326]
0.00551 nM,0.0175 nM,37.1 nM,HSQGTFTSDYSEYLDSK([Ahx-Palmitoyl])RARDFVEWLERGG-NH2 (not fully specified) [g771]
0.0099 nM,0.171 nM,105 nM,HSQGTFTSDYSKYLDSRAAQK([Ahx-Palmitoyl])FVQWLERGG-NH2 (not fully specified) [g806]
0.218 nM,0.0263 nM,177 nM,HGQGTFTSDYSEYLDSK([Ahx-Palmitoyl])RARDFVAWLERGG-OH (N-terminus assumed; SMILES CCCCCCCCCCCCCCCC(=O)NCCCCCC(=O)NCCCC[C@H](NC(=O)[C@H](CO)NC(=O)[C@H](CC(=O)O)NC(=O)[C@H](CC(C)C)NC(=O)[C@H](Cc1ccc(O)cc1)NC(=O)[C@H](CCC(=O)O)NC(=O)[C@H](CO)NC(=O)[C@H](Cc1ccc(O)cc1)NC(=O)[C@H](CC(=O)O)NC(=O)[C@H](CO)NC(=O)[C@@H](NC(=O)[C@H](Cc1ccccc1)NC(=O)[C@@H](NC(=O)CNC(=O)[C@H](CCC(N)=O)NC(=O)CNC(=O)[C@@H](N)Cc1c[nH]cn1)[C@@H](C)O)[C@@H](C)O)C(=O)N[C@@H](CCCNC(=N)N)C(=O)N[C@@H](C)C(=O)N[C@@H](CCCNC(=N)N)C(=O)N[C@@H](CC(=O)O)C(=O)N[C@@H](Cc1ccccc1)C(=O)N[C@H](C(=O)N[C@@H](C)C(=O)N[C@@H](Cc1c[nH]c2ccccc12)C(=O)N[C@@H](CC(C)C)C(=O)N[C@@H](CCC(=O)O)C(=O)N[C@@H](CCCNC(=N)N)C(=O)NCC(=O)NCC(=O)O)C(C)C) [g727]
0.0279 nM,0.0272 nM,6.41 nM,HSQGTFTSDYSKYLDSRRAQDFVQWLVAGGKNNRNNIAK-NH2 [g321]
0.00423 nM,0.0293 nM,58 nM,HSQGTFTSDYSEYLDSK([Ahx-Palmitoyl])RARDFVAWLERGG-OH (not fully specified) [g826]
0.00232 nM,0.0193 nM,12.8 nM,HSQGTFTSDYSKYLDSRRAQDFVQWLVAGGGGGGK([γGlu-Palmitoyl])-NH2 [g327]
0.00504 nM,0.0273 nM,19.7 nM,HSQGTFTSDYSKYLDSRRAQDFVQWLVAGGGGGG-NH2 [g315]
59.9 nM,0.0252 nM,1480 nM,HGEGTFTSDYSEYLDSK([Ahx-Palmitoyl])RAADFVAWLERGG-NH2 (N-terminus assumed; SMILES CCCCCCCCCCCCCCCC(=O)NCCCCCC(=O)NCCCC[C@H](NC(=O)[C@H](CO)NC(=O)[C@H](CC(=O)O)NC(=O)[C@H](CC(C)C)NC(=O)[C@H](Cc1ccc(O)cc1)NC(=O)[C@H](CCC(=O)O)NC(=O)[C@H](CO)NC(=O)[C@H](Cc1ccc(O)cc1)NC(=O)[C@H](CC(=O)O)NC(=O)[C@H](CO)NC(=O)[C@@H](NC(=O)[C@H](Cc1ccccc1)NC(=O)[C@@H](NC(=O)CNC(=O)[C@H](CCC(=O)O)NC(=O)CNC(=O)[C@@H](N)Cc1c[nH]cn1)[C@@H](C)O)[C@@H](C)O)C(=O)N[C@@H](CCCNC(=N)N)C(=O)N[C@@H](C)C(=O)N[C@@H](C)C(=O)N[C@@H](CC(=O)O)C(=O)N[C@@H](Cc1ccccc1)C(=O)N[C@H](C(=O)N[C@@H](C)C(=O)N[C@@H](Cc1c[nH]c2ccccc12)C(=O)N[C@@H](CC(C)C)C(=O)N[C@@H](CCC(=O)O)C(=O)N[C@@H](CCCNC(=N)N)C(=O)NCC(=O)NCC(N)=O)C(C)C) [g725]
0.0089 nM,0.021 nM,94 nM,HSQGTFTSDYSEYLDSK([Ahx-Palmitoyl])RAADFVAWLERGG-NH2 (not fully specified) [g818]
